Experimental data published in paper PMC7588443 (Nature Communications, 2020).

B1: unnamed (parent)
chain 1: ECPDRWRAEIDLGLPPGVQVGDLLRNEQTMGSLRQVYLLAVQANSITDHLKRFDAVRVPESCRGVVEAQVAKLEAVRSVIWNTMISLAVSGIEMDENGLKALLDKQAGDSLALMEMEKVATALKMD
chain 2: MQKVSLRVTPRLVLEVNRHNAICVATNVPEFYNARGDLNIRDLRAHVKARMISSQFCGYVLVSLLDSEDQVDHLNIFPHVFSERMILYKPNNVNLMEMCALLSMIENAKSPSIGLCREVLGRLTLLHSKCNNLDSLFLYNGARTLLSTLVKYHDLEEGAATPGPWNEGLSLFKLHKELKRAPSEARDLMQSLFLTSGKMGCLARSPKDYCADLNKEEDANSGFTFNLFYQDSLLTKHFQCQTVLQTLRRKCLGSDTVSKIIP

Variants of: B1
Test: BLI
Conditions: with partner chain of the complex shown; 10 μg ml−1 His-tagged BBRF2Δ; BSRF1Δ(M63D) at 500, 250, 125, 62.5, 31.3, 15.6 nM

Question: Which Kd does the source give for chain 1 M30D here?
Answer: 126 nM

Same assay, conditions: with partner chain of the complex shown; 10 μg ml−1 His-tagged BBRF2Δ(F209K); BSRF1Δ at 500, 250, 125, 62.5, 31.3, 15.6 nM

Question: With chain 2 F193K as the variant, how does the Kd read?
Answer: 53.9 nM

Same assay, conditions: with partner chain of the complex shown; 10 μg ml−1 His-tagged BBRF2Δ; BSRF1Δ(N59K) at 500, 250, 125, 62.5, 31.3 nM

Question: chain 1 N26K was tested. Which Kd did it give?
Answer: 59.9 nM
